Laboratory results published in the supplement of paper PMC10899765.

How the values were obtained:
Conditions in all cases: 20 nM; 72 h
MCF10A [1] = assay: percent viability (nuclei count relative to siNT); higher = more viable cells
Experimental: (§1)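 After 72 h, cells were fixed and stained with Hoechst and anti-fibrillarin, and nucleoli per nucleus were counted with CellProfiler. Values are plate-adjusted percent effect for the one-nucleolus and 5+ nucleoli phenotypes, normalised to siNT (0%) and to the positive controls siNOL11 or siKIF11 (100%), as the mean of biological triplicates. Percent viability is the nuclei count relative to siNT.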

MCF10A [2] = assay: 5+ nucleoli phenotype percent effect (relative to siNT 0% and siKIF11 100%); higher = more cells with five or more nucleoli
Experimental: as §1

MCF10A [3] = assay: one-nucleolus phenotype percent effect (relative to siNT 0% and siNOL11 100%); higher = more cells with one nucleolus (ribosome biogenesis inhibition)
Experimental: as §1

Row | Sequence | percent viability (MCF10A [1]) [%] | 5+ nucleoli phenotype percent effect (MCF10A [2]) [%] | one-nucleolus phenotype percent effect (MCF10A [3]) [%]
1 | CUGGGGGACGCGUGAGCGCGAGC [hsa-miR-4665-5p] | 31.2 | 9.32 | 18.8
2 | AAAGCUGGGUUGAGAAGG [hsa-miR-320e] | 28.6 | 2.27 | 3.44
3 | GGUCUAGGCCCGGUGAGAGACUC [hsa-miR-8078] | 21 | 10 | -3.5
4 | UAGCAGCACAUCAUGGUUUACA [hsa-miR-15b-5p] | 26.5 | -4.86 | 26.9
5 | UUAGUCCUGCCUGUAGGUUUA [hsa-miR-4540] | 39.3 | -37.9 | 8.27
6 | AGAGAAGAAGAUCAGCCUGCA [hsa-miR-1253] | 84.6 | 37.9 | -16.8
7 | ACUGCCCUAAGUGCUCCUUCUGG [hsa-miR-18a-3p] | 58.7 | 4.11 | -2.39
8 | UGAGGUAGGAGGUUGUAUAGUU [hsa-let-7e-5p] | 23 | 48.7 | -8.3
9 | UAUGUCCCAUCCCUCCAUCA [hsa-miR-6834-3p] | 22.7 | -28.7 | 21.4
10 | GAAGUUGCCCAUGUUAUUUUCG [hsa-miR-495-5p] | 42.2 | -1.1 | 1.67
11 | UAGUACCAGUACCUUGUGUUCA [hsa-miR-624-5p] | 26.3 | -9.19 | -2.83
12 | ACGGCCCAGGCGGCAUUGGUG [hsa-miR-6075] | 87.5 | 5.39 | -5.35
13 | CACUCAGCCUUGAGGGCACUUUC [hsa-miR-512-5p] | 43.4 | -15.2 | 16.2
14 | UGAGGAUAUGGCAGGGAAGGGGA [hsa-miR-3679-5p] | 100 | 29.7 | -24.2
15 | UGGGAGAGAGGACUGUGAGGC [hsa-miR-8085] | 12.6 | -1.75 | 21.4
16 | ACAGUAGAGGGAGGAAUCGCAG [hsa-miR-936] | 61.7 | 14.1 | -2.74
17 | UGACCCCUUCUGUCUCCCUAG [hsa-miR-6846-3p] | 47.5 | 10.3 | -13.6
18 | GCUGGUCUGCGUGGUGCUCGG [hsa-miR-3663-5p] | 123 | 52.4 | -23.3
19 | AUUUGUGCUUGGCUCUGUCAC [hsa-miR-2113] | 98.6 | 9.63 | -12.4
20 | UGAGUCAGCAACAUAUCCCAUG [hsa-miR-5702] | 86.4 | 52.5 | -25.5
21 | CAGGGCCCUGGCUUUAGCAGA [hsa-miR-7160-3p] | 41.3 | -4.58 | 14.8
22 | GUGCAUUGUAGUUGCAUUGCA [hsa-miR-33a-5p] | 46 | -0.156 | -0.977
23 | UGUCGUGGGGCUUGCUGGCUUG [hsa-miR-4440] | 58.9 | -27.6 | 2.65
24 | AGAGGUUGCCCUUGGUGAAUUC [hsa-miR-377-5p] | 22 | -35.2 | 36.3
25 | GCUAUUUCACGACACCAGGGUU [hsa-miR-138-2-3p] | 43.1 | -22.8 | 4.26
26 | UGGCUGCUUCCCUUGGUCUCCAG [hsa-miR-6762-3p] | 20.3 | -10.9 | 44
27 | UUGUGUGAGUACAGAGAGCAUC [hsa-miR-6818-5p] | 17.1 | -31.6 | 66.1
28 | CUAGCACACAGAUACGCCCAGA [hsa-miR-585-5p] | 36.5 | -45.7 | 46
29 | UUUAACAUGGGGGUACCUGCUG [hsa-miR-302c-5p] | 121 | 22.3 | -8.1
30 | GGCUCAUGUGUCUGUCCUCUUC [hsa-miR-6847-3p] | 44.2 | 1.91 | -18
